From patent publication US20040043959A1, “Combination therapies for treating methylthioadenosine phosphorylase deficient cells” (priority 2002, published 2004)

Assays:
Experiment in all cases: MTAP substrate assay, coupled spectrophotometric (adenine, xanthine oxidase)
Type in all cases: biochemical, human
Settings in all cases: other: substrate of MTAP, 37° C.
[1] = substrate: CCCCSC[C@H]1O[C@@H](n2cnc3c(N)ncnc32)[C@H](O)[C@@H]1O
Protocol: (§1) An enzymatic assay to determine the activity of MTAP against a given substrate was performed. Human MTAP containing an N-terminal six-histidine tag was expressed in E. coli BL21 DE3 cells. The protein was purified to homogeneity by Ni2+ affinity chromatography. Enzymatic activity was measured using a coupled spectrophotometric assay designed to monitor the reaction product adenine (Savarese, T. M., Crabtree, G. W., and Parks, R. E. Jr., (1980) Biochem. Pharmacol. 30, 189-199). Various concentrations of the indicated 5′-deoxymethylthio adenosine (MTA) or substrate were incubated in assay buffer (40 mM potassium phosphate buffer, 1 mM, and DTT 0.8 units/ml xanthine oxidase coupling enzyme) for 5 minutes at 37° C. The reaction was initiated by the addition of MTAP. The exact concentration of enzyme used varied for each substrate tested and ranged from 2 nM to 500 nM. Activity as a function of enzyme concentration was determined for each substrate tested to ensure that the appropriate enzyme concentration was used. Activity was detected by continuous monitoring of absorbance at 305 nm for 10 minutes (ΔE=15,500 M^−1).
(§2) Library compounds (10 and 50 uM) were tested using the assay described above with 2 nM MTAP enzyme. The resultant initial velocities are reported as a percentage of the initial velocity observed when MTA is the substrate. MTA controls, 10 and 50 uM concentrations, were run on each plate alongside the library compounds.

[2] = substrate: Nc1ncnc2c1ncn2[C@@H]1O[C@H](CNC2CCCC2)[C@@H](O)[C@H]1O
Protocol: as §1, §2

[3] = substrate: Nc1ncnc2c1ncn2[C@@H]1O[C@H](CSc2ncc[nH]2)[C@@H](O)[C@H]1O
Protocol: as §1, §2

[4] = substrate: Nc1ncnc2c1ncn2[C@@H]1O[C@H](CSCc2cccs2)[C@@H](O)[C@H]1O
Protocol: as §1, §2

[5] = substrate: COc1ccccc1SC[C@H]1O[C@@H](n2cnc3c(N)ncnc32)[C@H](O)[C@@H]1O
Protocol: as §1, §2

[6] = substrate: C[C@H]1O[C@@H](n2cnc3c(N)ncnc32)[C@H](O)[C@@H]1O
Protocol: as §1, §2

[7] = substrate: CSC[C@H]1O[C@@H](n2cnc3c(N)ncnc32)[C@@H](O)[C@@H]1O
Protocol: as §1, §2

[8] = substrate: Nc1ncnc2c1ncn2[C@@H]1O[C@H](CSCc2ccc(Cl)cc2)[C@@H](O)[C@H]1O
Protocol: as §1, §2

[9] = substrate: Cc1ccccc1SC[C@H]1O[C@@H](n2cnc3c(N)ncnc32)[C@H](O)[C@@H]1O
Protocol: as §1, §2

[10] = substrate: Cc1cccc(CSC[C@H]2O[C@@H](n3cnc4c(N)ncnc43)[C@H](O)[C@@H]2O)c1
Protocol: as §1, §2

[11] = substrate: Cc1ccccc1CSC[C@H]1O[C@@H](n2cnc3c(N)ncnc32)[C@H](O)[C@@H]1O
Protocol: as §1, §2

[12] = substrate: CCOC(=O)CC[C@H]1O[C@@H](n2cnc3c(N)ncnc32)[C@H](O)[C@@H]1O
Protocol: as §1, §2

[13] = substrate: Nc1ncnc2c1ncn2[C@@H]1O[C@H](CSCCc2ccccc2)[C@@H](O)[C@H]1O
Protocol: as §1, §2

[14] = substrate: Nc1ncnc2c1ncn2[C@@H]1O[C@H](CSc2ccc3ccccc3n2)[C@@H](O)[C@H]1O
Protocol: as §1, §2

[15] = substrate: CC(C)CCSC[C@H]1O[C@@H](n2cnc3c(N)ncnc32)[C@H](O)[C@@H]1O
Protocol: as §1, §2

[16] = substrate: Nc1ncnc2c1ncn2[C@@H]1O[C@H](CSCc2ccco2)[C@@H](O)[C@H]1O
Protocol: as §1, §2

B1: Human MTAP (Homo sapiens) (protein)
chain: MASGTTTTAVKIGIIGGTGLDDPEILEGRTEKYVDTPFGKPSDALILGKIKNVDCVLLARHGRQHTIMPSKVNYQANIWALKEEGCTHVIVTTACGSLREEIQPGDIVIIDQFIDRTTMRPQSFYDGSHSCARGVCHIPMAEPFCPKTREVLIETAKKLGLRCHSKGTMVTIEGPRFSSRAESFMFRTWGADVINMTTVPEVVLAKEAGICYASIAMATDYDCWKEHEEAVSVDRVLKTLKENANKAKSLLLTTIPQIGSTEWSETLHNLKNMAQFSVLLPRH
notes: six-histidine tag (His6) (N); made in house; host or cells: E. coli BL21 DE3
Km [1]: 3.3 µM | kcat [1]: 5.4 s⁻¹ | Km [2]: 600 µM | kcat [2]: 0.3 s⁻¹ | Km [3]: 9 µM | kcat [3]: 3.8 s⁻¹ | Km [4]: 6 µM | kcat [4]: 4.6 s⁻¹ | Km [5]: 13 µM | kcat [5]: 0.13 s⁻¹ | Km [6]: 6 µM | kcat [6]: 4.8 s⁻¹ | Km [7]: 106 µM | kcat [7]: 0.006 s⁻¹ | Km [8]: 3.9 µM | kcat [8]: 3.3 s⁻¹ | Km [9]: 5.6 µM | kcat [9]: 0.175 s⁻¹ | Km [10]: 4 µM | kcat [10]: 1.82 s⁻¹ | Km [11]: 10 µM | kcat [11]: 0.79 s⁻¹ | Km [12]: 5.95 µM | kcat [12]: 4.12 s⁻¹ | Km [13]: 5 µM | kcat [13]: 2.14 s⁻¹ | Km [14]: 6.9 µM | kcat [14]: 3.16 s⁻¹ | Km [15]: 2.8 µM | kcat [15]: 5.5 s⁻¹ | Km [16]: 4.45 µM | kcat [16]: 6.15 s⁻¹
